Substrate in this data set: CCCCC/C=C\C\C=C/C=C/C=C/[C@@H](SC[C@@H](NC(=O)CC[C@H](N)C(=O)O)C(=O)NCC(=O)O)[C@@H](O)CCCC(=O)O
The data set can be described thus: cells, lysate or membranes named.

B1: Multidrug resistance-associated protein 1 (Mus musculus) (protein)
chain: MALRSFCSADGSDPLWDWNVTWHTSNPDFTKCFQNTVLTWVPCFYLWSCFPLYFFYLSRHDRGYIQMTHLNKTKTALGFFLWIICWADLFYSFWERSQGVLRAPVLLVSPTLLGITMLLATFLIQLERRKGVQSSGIMLTFWLVALLCALAILRSKIISALKKDAHVDVFRDSTFYLYFTLVLVQLVLSCFSDCSPLFSETVHDRNPCPESSASFLSRITFWWITGMMVHGYRQPLESSDLWSLNKEDTSEEVVPVLVNNWKKECDKSRKQPVRIVYAPPKDPSKPKGSSQLDVNEEVEALIVKSPHKDREPSLFKVLYKTFGPYFLMSFLYKALHDLMMFAGPKILELIINFVNDREAPDWQGYFYTALLFVSACLQTLALHQYFHICFVSGMRIKTAVVGAVYRKALLITNAARKSSTVGEIVNLMSVDAQRFMDLATYINMIWSAPLQVILALYFLWLSLGPSVLAGVAVMILMVPLNAVMAMKTKTYQVAHMKSKDNRIKLMNEILNGIKVLKLYAWELAFQDKVMSIRQEELKVLKKSAYLAAVGTFTWVCTPFLVALSTFAVFVTVDERNILDAKKAFVSLALFNILRFPLNILPMVISSIVQASVSLKRLRIFLSHEELEPDSIERRSIKSGEGNSITVKNATFTWARGEPPTLNGITFSIPEGALVAVVGQVGCGKSSLLSALLAEMDKVEGHVTLKGSVAYVPQQAWIQNDSLRENILFGHPLQENYYKAVMEACALLPDLEILPSGDRTEIGEKGVNLSGGQKQRVSLARAVYSNSDIYLFDDPLSAVDAHVGKHIFEKVVGPMGLLKNKTRILVTHGISYLPQVDVIIVMSGGKISEMGSYQELLDRDGAFAEFLRTYANAEQDLASEDDSVSGSGKESKPVENGMLVTDTVGKHLQRHLSNSSSHSGDTSQQHSSIAELQKAGAKEETWKLMEADKAQTGQVQLSVYWNYMKAIGLFITFLSIFLFLCNHVSALASNYWLSLWTDDPPVVNGTQANRNFRLSVYGALGILQGAAIFGYSMAVSIGGIFASRRLHLDLLYNVLRSPMSFFERTPSGNLVNRFSKELDTVDSMIPQVIKMFMGSLFSVIGAVIIILLATPIAAVIIPPLGLVYFFVQRFYVASSRQLKRLESVSRSPVYSHFNETLLGVSVIRAFEEQERFIHQSDLKVDENQKAYYPSIVANRWLAVRLECVGNCIVLFAALFAVISRHSLSAGLVGLSVSYSLQITAYLNWLVRMSSEMETNIVAVERLKEYSETEKEAPWQIQETAPPSTWPHSGRVEFRDYCLRYREDLDLVLKHINVTIEGGEKVGIVGRTGAGKSSLTLGLFRINESAEGEIIIDGVNIAKIGLHNLRFKITIIPQDPVLFSGSLRMNLDPFSQYSDEEVWMALELAHLKGFVSALPDKLNHECAEGGENLSVGQRQLVCLARALLRKTKILVLDEATAAVDLETDNLIQSTIRTQFEDCTVLTIAHRLNTIMDYTRVIVLDKGEVRECGAPSELLQQRGIFYSMAKDAGLV
Regarding B1, the Michaelis constant (Km) was 0.05 µM.

By Km is commonly meant the substrate concentration at which the rate is half of its maximum.
